Here are results for 1 substance from patent US20240294635A1.

The target of experiment [1] is CD47 on the red cell surface (Homo sapiens (Human)) (UniProt Q08722). Nature of the experiment: flow cytometry on fixed red cells, antibody 1 µg/mL. (A flow cytometer gives signals particle by particle.)
Experiment [2] shares this target. Nature of the experiment: flow cytometry on fixed red cells, antibody 10 µg/mL.

Take IgG4 (antibody): the results for the MFI in experiment [1] and in experiment [2] were 449 MFI and 484 MFI, respectively.
